Numbering of substitutions follows the chain as printed. Non-standard residues stand in square brackets, D forms with d. No end group written: not given here. allyl‑C = allyl-modified terminal Cys; allyl‑K = allyl-modified terminal Lys
Legend:
[1] = test system: chE containing membrane C5b-8; assay: Hemolytic titration of recombinant C9 constructs against chE containing membrane C5b-8; assay type: cell-based, chicken
Procedure: Analysis of the inhibitory function of CD 59 towards recombinant C9 constructs—Hemolytic activity of each C9 construct was assayed using as target cells chE that were reconstituted with purified hu CD59, as described by Husler, et al., (1995). chE were washed extensively and suspended in GVBS, and the membrane C5b67 complex assembled by mixing cells (1.4×10^9/ml) with C5b6 (13 μg/ml) followed by addition of C7 (1 μg/ml). After 10 min., the C5b67 chE were diluted to 1.4×10^8/ml in GVBE and incubated (10 min. 37° C.) with 0 or 750 ng/ml CD59. In each case, the final concentration of Nonidet P-40 was less than 0.002% (v/v). After washing in ice-cold GVBE, 2.8×10^8 of these cells were incubated (37° C.) in a total volume of 100 μl with 1 ng rb C8 plus, between zero and 50 ng of recombinant C9, serially diluted in Opti-MEM I. Hemolysis was determined after 30 minutes at 37° C., with correction for nonspecific lysis, determined in the absence of C9. In each experiment, the inhibitory activity of CD59 towards each recombinant C9 construct was determined from the reduction in complement lysis of those cells reconstituted with CD59, versus the identically-treated cells omitting CD59, measured at the midpoint of the C9 titration (i.e., 50% hemolysis). […]

[2] = target: T1, hu CD59 (Homo sapiens, UniProt P13987); assay: Inhibitory function of CD59 towards recombinant C9 constructs (hemolysis of C5b-8 chE with or without membrane CD59); assay type: cell-based; conditions: chE with hu C5b67 and rb C8, 0 or 750 ng/ml CD59; compared with hu C9 and rb C9
T1 construct: human erythrocyte membrane glycoprotein CD59 were purified; from tissue; host or cells: human erythrocyte membranes
T1 sequence (P13987 26-102): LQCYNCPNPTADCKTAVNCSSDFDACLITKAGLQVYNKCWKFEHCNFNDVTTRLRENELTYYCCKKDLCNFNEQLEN
Procedure: Analysis of the inhibitory function of CD 59 towards recombinant C9 constructs—Hemolytic activity of each C9 construct was assayed using as target cells chE that were reconstituted with purified hu CD59, as described by Husler, et al., (1995). chE were washed extensively and suspended in GVBS, and the membrane C5b67 complex assembled by mixing cells (1.4×10^9/ml) with C5b6 (13 μg/ml) followed by addition of C7 (1 μg/ml). After 10 min., the C5b67 chE were diluted to 1.4×10^8/ml in GVBE and incubated (10 min. 37° C.) with 0 or 750 ng/ml CD59. In each case, the final concentration of Nonidet P-40 was less than 0.002% (v/v). After washing in ice-cold GVBE, 2.8×10^8 of these cells were incubated (37° C.) in a total volume of 100 μl with 1 ng rb C8 plus, between zero and 50 ng of recombinant C9, serially diluted in Opti-MEM I. Hemolysis was determined after 30 minutes at 37° C., with correction for nonspecific lysis, determined in the absence of C9. In each experiment, the inhibitory activity of CD59 towards each recombinant C9 construct was determined from the reduction in complement lysis of those cells reconstituted with CD59, versus the identically-treated cells omitting CD59, measured at the midpoint of the C9 titration (i.e., 50% hemolysis). In order to directly compare results obtained in experiments performed on different days, data for each recombinant C9 construct were normalized to results obtained in each experiment with hu C9.

[3] = target: T2, CD59 (Homo sapiens, UniProt P13987); assay: CD59 binding to hu C9 peptide 359–384, microtiter plate assay with biotin-CD59; conditions: microplate; corrected for nonspecific binding with 20-fold excess unlabeled CD59
T2 construct: human erythrocyte membrane glycoprotein CD59 were purified; from tissue; host or cells: human erythrocyte membranes (CD59); synthetic peptide custom ordered from Quality Controlled Biochemicals
T2 sequence (P13987 26-102): T1 sequence (P13987 26-102)
Procedure: Biotin-CD59—CD59 was biotinylated by incubation (1 h, room temperature) with a 20-fold molar excess of NHS-LC-biotin in 10 mM MOPS, 0.1% Nonidet P-40, pH 9.0 followed by exhaustive dialysis against charcoal, as described by Chang, et al. J. Biol. Chem. 269, 26424–26430 (1994).
CD59 binding to hu C9 peptide 359–384—The specific binding of CD59 to hu C9-derived peptide 359–384 was measured by microtiter plate assay with biotin-CD59, according to modification of published methods of Chang, et al. (1994) and Husler, et al. (1995). Briefly, the BSA-peptide conjugate was adsorbed to 96 well polyvinyl microplates by overnight coating at 5 μg/ml in 0.1 M sodium bicarbonate, pH 8.5. After blocking with 1% (w/v) BSA, wells were washed and incubated (4 hrs., 37° C.) with between 0.5 and 1 μg/ml biotin-CD59. After washing, the bound biotin-CD59 was detected with Vectastain (Vector Labs, Burlingame, Calif.), developed by addition of p-nitrophenyl phosphate (2 mg/ml) and optical density recorded at 405 nm (VMaxMicroplate Reader, Molecular Devices, Inc.). In all experiments, correction was made for background adsorption of biotin-CD59 to BSA-coated wells (no peptide) and for nonspecific binding of biotin-CD59 to peptide, determined in the presence of a 20-fold excess of unlabeled CD59. […]

[4] = target: T3, hu C5b-9 (hu C5b67 with hu C8 and hu C9) (Homo sapiens, UniProt P02748+P07357); assay: Assay of MAC inhibitory function of recombinant CD59 on transfected SV-T2 cells, hu C8 and C9; assay type: cell-based; conditions: for species-selective complement inhibitory function compared with full-length hu or rb CD59: SV-T2 clones, hu versus rb C8 and C9 used to assemble the C5b-9 complex; for MAC-inhibitory function towards hu C5b-9 (protection from lysis): CD59 construct expressed on SV-T2 cells, hu C5b67, 2 μM hu C8 and 5 μM hu C9, BCECF dye release
T3 construct: human complement proteins (C5b7, C8 and C9) and rabbit complement proteins C8 and C9 were purified; from tissue; host or cells: human serum/plasma (C8 and C9 purified; C5b67 deposited from C8-depleted human serum)
Procedure: (§1) Expression of CD59 constructs in SV-T2 cells—SV-T2 cells were transfected with hu, rb, or chimeric TAG-CD59 pcDNA3 by electroporation as previously described (Zhou, Q., Zhao, J., Hüsler, T., and Sims, P. J. (1996) Mol. Immunol. 33, 1127–1134). After 48 hr, stable transfectants were selected with DMEM complete medium containing 1 mg/ml geneticin for 10 days. If episomal replication in the transfected cells was desired, 8×10^6 SV-T2 cells were transfected with 120 μg plasmid DNA by electroporation using GENE PULSE™ (Bio-rad) at 360 V and 500 μF (Zhou, Q., Zhao, J., Hüsler, T., and Sims, P. J. (1996) Mol. Immunol. 33, 1127–1134). Geneticin-selected cells were stained with mAb 9E10 against TAG epitope followed by FITC-conjugated goat antibody against mouse IgG, and sorted by flow cytometry (FACStar Plus; Becton Dickinson). Individual clones were then obtained by limiting dilution in DMEM containing 0.5 mg/ml geneticin. Comparison was made to clonal cell lines derived by transfection with pcDNA3, lacking insert (vector-only controls).
Measurement of cell surface TAG-CD59—The cell surface expression of each TAG-CD59 construct in transfected SV-T2 cells was quantified by the binding at saturation of mAb 9E10 (against TAG epitope) as previously described by Zhou, Q., Zhao, J., Hüsler, T., and Sims, P. J. (1996) Mol. Immunol. 33, 1127–1134. Following growth to near confluence, cells were detached and incubated for 30 min at 23° C. with mAb 9E10 (100 μg/ml) in HBSS containing 1% BSA. After washing with HBSS containing 1% BSA, the cells were incubated (20 min at 23° C.) with FITC conjugated goat anti-mouse IgG at a final concentration of 10 μg/ml. The fluorescence was determined by flow cytometry (FACScan, Becton Dickinson) as described previously by Zhou, Q., Zhao, J., Hüsler, T., and Sims, P. J. (1996) Mol. Immunol. 33, 1127–1134.
Assay of MAC inhibitory function—The complement-inhibitory activity of recombinant CD59 expressed on the transfected SV-T2 cells was evaluated by minor modification of methods previously described (Zhou, Q., Zhao, J., Hüsler, T., and Sims, P. J. (1996) Mol. Immunol. 33, 1127–1134, and Zhao, J., Rollins, S. A., Maher, S. E., Bothwell, A. L., and Sims, P. J. (1991) J. Biol. Chem. 266, 13418–13422). For cell clones expressing each chimeric CD59 construct, huC5b67 was deposited on the plasma membrane and susceptibility to the lytic activity of either hu C8 and C9 or rb C8 and C9 was measured and compared to identically-treated clones expressing wild-type hu or rb CD59. […] MAC-mediated cell lysis was determined from the measured release of BCECF dye from the cytoplasm, with correction for non-specific dye leak from matched controls omitting C8 and C9, as previously described by Zhou, Q., Zhao, J., Hüsler, T., and Sims, P. J. (1996) Mol. Immunol. […]

[5] = target: T4, human erythrocyte membrane glycoprotein CD59 (purified) (human, UniProt P13987 26-102, biotinylated with NHS-LC-biotin where used as biotin-CD59); assay: microplate assay: BSA-peptide coated wells, biotin-CD59 detected with Vectastain, OD 405 nm; corrected with a 20-fold excess of unlabeled CD59
T4 construct: Purified from human erythrocyte membranes; Used as biotin-CD59 in the microplate assay and put back into chicken erythrocytes (chE) for the hemolytic assays; it may hold a C-terminal GPI signal that the purified protein lacks; also called hu CD59; biotin-CD59
T4 sequence: T1 sequence (P13987 26-102)
Procedure: Briefly, the BSA-peptide conjugate was adsorbed to 96 well polyvinyl microplates by overnight coating at 5 µg/ml in 0.1 M sodium bicarbonate, pH 8.5. After blocking with 1% (w/v) BSA, wells were washed and incubated (4 hrs., 37° C.) with between 0.5 and 1 µg/ml biotin-CD59. After washing, the bound biotin-CD59 was detected with Vectastain (Vector Labs, Burlingame, Calif.), developed by addition of p-nitrophenyl phosphate (2 mg/ml) and optical density recorded at 405 nm (VMaxMicroplate Reader, Molecular Devices, Inc.). In all experiments, correction was made for background adsorption of biotin-CD59 to BSA-coated wells (no peptide) and for nonspecific binding of biotin-CD59 to peptide, determined in the presence of a 20-fold excess of unlabeled CD59. As a positive control for specific binding, comparison was made in each experiment to wells coated with 2 µg/ml hu C9.

[6] = target: T5, C5b-9 assembled from rb C8 and C9 (Oryctolagus cuniculus, UniProt P48747+P98136); assay: Assay of MAC inhibitory function of recombinant CD59 on transfected SV-T2 cells, rb C8 and C9; assay type: cell-based, rabbit; conditions: CD59 construct expressed on SV-T2 cells; hu C5b67, 4 μM rb C8 and 5 μM rb C9; BCECF dye release
T5 construct: rabbit complement proteins C8 and C9 were purified; from tissue; host or cells: rabbit serum/plasma (C8, C9); C8-depleted human serum (C5b67)
Procedure: as §1, with “Comparison was made to clonal cell lines derived by transfection with pcDNA3, lacking insert (vector-only controls).” left out
Measurement of cell surface TAG-CD59—The cell surface expression of each TAG-CD59 construct in transfected SV-T2 cells was quantified by the binding at saturation of mAb 9E10 (against TAG epitope) as previously described by Zhou, Q., Zhao, J., Hüsler, T., and Sims, P. J. (1996) Mol. Immunol. […] The fluorescence was determined by flow cytometry (FACScan, Becton Dickinson) as described previously by Zhou, Q., Zhao, J., Hüsler, T., and Sims, P. J. (1996) Mol. Immunol. […]

## Mutant hu C9: recombinant hu C9 expressed with Ala substitutions at Cys359 and Cys384
[1]
  hemolytic activity of the C9 construct: did not significantly affect
[2]
  sensitivity of the C9 construct to inhibition of MAC lytic activity by membrane CD59: did not significantly affect

## [allyl-K]-CLGYHLDVSLAFSEISVGAEFNKDD-[allyl-C] ([allyl‑K]CLGYHLDVSLAFSEISVGAEFNKDD[allyl‑C]; not fully specified; printed as [allyl-K]-CLGYHLDVSLAFSEISVGAEFNKDD-[allyl-C]) [C9 peptide 359–384]
[3]
  specific binding of biotin-CD59 to the BSA-coupled peptide: specifically bound

B1: Ch6R: rabbit 42–58 substituted in hu CD59 (protein)
chain: EQKLISEEDLNLQCYNCPNPTADCKTAVNCSSDFDACLITKAGLQVYNKCWKYEDCNFEFISNRLEENSLTYYCCKKDLCNFNEQLEN
[4]
  species-selective complement inhibitory function compared with full-length hu or rb CD59: functionally indistinguishable from rb CD59

B2: BSA-conjugated hu C9 peptide 359-384 (peptide)
peptide: [allyl‑K]CLGYHLDVSLAFSEISVGAEFNKDD[allyl‑C]
modifications: also: coupled to BSA
notes: Synthetic peptide, custom ordered, adsorbed to microplates as a BSA conjugate; also called BSA-peptide conjugate
[5]
  binding result: binds

B3: hu CD59: Human CD59 antigen, 18–21 kDa plasma membrane protein, inhibitor of the C5b-9 membrane attack complex; expressed recombinantly with TAG (protein, UniProt P13987 26-102, looked up)
CD59 glycoprotein: T1 sequence (P13987 26-102)
modifications: TAG epitope tag
[4]
  MAC-inhibitory function towards hu C5b-9 (protection from lysis): nearly completely protected from lysis by hu C5b-9
[6]
  MAC-inhibitory function towards C5b-9 assembled with rb C8 and C9 (protection from lysis): protective effect of hu CD59 was not observed

B4: rb CD59: rabbit CD59 cloned by the applicant (GenBank AF040387), expressed recombinantly with TAG on SV-T2 cells (protein)
chain: EQKLISEEDLNSLMCYHCLLPSPNCSTVTNCTPNHDACLTAVSGPRVYRQCWRYEDCNFEFISNRLEENSLKYNCCRKDLCNGPEDDG
[4]
  MAC-inhibitory function towards hu C5b-9 (protection from lysis): virtually no inhibition of the lytic action of MAC was observed
[6]
  MAC-inhibitory function towards C5b-9 assembled with rb C8 and C9 (protection from lysis): conferred a selective resistance to lysis by C5b-9 assembled from rb C8 and C9

B5: Ch6: hu CD59 residues 42–58 substituted into rb CD59 (protein)
chain: B4 chain with Y54F, D56H, E60N, F61D, I62V, S63T, N64T, E67R, S70E
[4]
  species-selective complement inhibitory function compared with full-length hu or rb CD59: functionally indistinguishable from native hu CD59

From patent publication US7166568B1, “Compositions and methods to inhibit formation of the C5b-9 complex of complement” (Oklahoma Medical Research Foundation, priority 1998, dated 2007)
